T1: FcγRIIa type H (human, UniProt P12318 34-217)
T1 construct: extracellular domain; also called FcγRIIaH; FcgRIIaH
T1 sequence (looked up): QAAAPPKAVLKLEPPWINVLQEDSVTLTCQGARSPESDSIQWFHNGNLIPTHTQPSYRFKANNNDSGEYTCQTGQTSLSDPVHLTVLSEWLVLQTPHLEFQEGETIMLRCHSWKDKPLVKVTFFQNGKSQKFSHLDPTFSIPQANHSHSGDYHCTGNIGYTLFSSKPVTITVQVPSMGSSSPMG

T2: FcγRIIa type R (human, UniProt P12318 34-217)
T2 chain: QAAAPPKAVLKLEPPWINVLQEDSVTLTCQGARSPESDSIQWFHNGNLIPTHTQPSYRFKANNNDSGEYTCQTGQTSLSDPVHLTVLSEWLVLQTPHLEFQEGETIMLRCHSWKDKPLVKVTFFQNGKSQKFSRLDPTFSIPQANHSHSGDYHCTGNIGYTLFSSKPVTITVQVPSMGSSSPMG

T3: FcγRIIb (human, UniProt P31994 43-217)
T3 construct: extracellular domain; also called FcgRIIb; CD32B
T3 sequence (looked up): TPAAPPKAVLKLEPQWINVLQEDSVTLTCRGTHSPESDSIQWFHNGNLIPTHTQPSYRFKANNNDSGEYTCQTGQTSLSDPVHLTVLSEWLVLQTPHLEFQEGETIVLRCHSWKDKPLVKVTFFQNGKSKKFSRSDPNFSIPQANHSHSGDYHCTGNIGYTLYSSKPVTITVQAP


Assays:
FcγRIIa type H = biological target: T1, FcγRIIa type H; assay: SPR (Biacore), captured antibody, soluble FcγR
FcγRIIa type R [1] = biological target: T2, FcγRIIa type R; assay: SPR (Biacore), captured antibody, soluble FcγR
FcγRIIb [2] = biological target: T3, FcγRIIb; assay: SPR (Biacore), captured antibody, soluble FcγR
FcγRIa = biological target: T4, FcγRIa (human, UniProt P12314 16-292); assay: SPR (Biacore), captured antibody, soluble FcγR
T4 construct: Whole entry named; also called FcgRIa; CD64A

FcγRIIa type R [3] = biological target: T2, FcγRIIa type R; assay: SPR (Biacore); parent = IL6R-B3/IL6R-L
FcγRIIb [4] = biological target: T3, FcγRIIb; assay: SPR (Biacore); parent = IL6R-B3/IL6R-L

T4 sequence (P12314 16-292): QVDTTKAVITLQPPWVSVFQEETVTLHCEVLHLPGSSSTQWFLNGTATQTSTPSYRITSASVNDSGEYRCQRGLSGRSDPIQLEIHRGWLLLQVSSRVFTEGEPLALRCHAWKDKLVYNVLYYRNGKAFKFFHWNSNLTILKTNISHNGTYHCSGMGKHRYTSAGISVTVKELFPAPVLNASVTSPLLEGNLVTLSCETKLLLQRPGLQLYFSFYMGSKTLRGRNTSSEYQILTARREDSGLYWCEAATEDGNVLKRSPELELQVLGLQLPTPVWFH

Kd (FcγRIIa type H) [nM]	Kd (FcγRIIa type R [1]) [nM]	Kd (FcγRIIb [2]) [nM]	Kd (FcγRIa) [nM]	KD(IIaR) of the parent polypeptide/KD(IIaR) of the altered polypeptide (FcγRIIa type R [3]) [fold]	KD(IIb) of the parent polypeptide/KD(IIb) of the altered polypeptide (FcγRIIb [4]) [fold]	Binder
930	51	1.7	1.3	21.7	1880	IL6R-BP498/IL6R-L (antibody, human IgG1, kappa, Alterations in EU numbering, introduced into IL6R-B3) heavy: QVQLQESGPGLVKPSETLSLTCAVSGHSISHDHAWSWVRQPPGEGLEWIGFISYSGITNYNPSLQGRVTISRDNSKNTLYLQMNSLRAEDTAVYYCARSLARTTAMDYWGEGTLVTVSSASTKGPSVFPLAPSSKSTSGGTAALGCLVKDYFPEPVTVSWNSGALTSGVHTFPAVLQSSGLYSLSSVVTVPSSSLGTQTYICNVNHKPSNTKVDKKVEPKSCDKTHTCPPCPAPDLLGDDSVFLFPPKPKDTLMISRTPEVTCVVIDVAEEDGEVKFNWYVDGVEVHNAKTKPREEQYNSTYRVVSVLTVLHQDWLNGKEYKCKVSNKALPRPIEKTISKAKGQPREPQVYTLPPSRDELTKNQVSLTCLVKGFYPSDIAVEWESNGQPENNYKTTPLVLDSDGSFFLYSKLTVDKSRWQQGNVFSCSVMHEALHNHYTQESLSLSP light: not shown
4300	180	3.5	6	6.3	891	IL6R-BP511/IL6R-L (antibody, human IgG1, kappa, Alterations in EU numbering, introduced into IL6R-B3) heavy: QVQLQESGPGLVKPSETLSLTCAVSGHSISHDHAWSWVRQPPGEGLEWIGFISYSGITNYNPSLQGRVTISRDNSKNTLYLQMNSLRAEDTAVYYCARSLARTTAMDYWGEGTLVTVSSASTKGPSVFPLAPSSKSTSGGTAALGCLVKDYFPEPVTVSWNSGALTSGVHTFPAVLQSSGLYSLSSVVTVPSSSLGTQTYICNVNHKPSNTKVDKKVEPKSCDKTHTCPPCPAPELLGDDSVFLFPPKPKDTLMISRTPEVTCVVIDVAEEDGPVKFNWYVDGVEVHNAKTKPREEQDNSTYRVVSVLTVLHQDWLNGKEYKCKVSNKALPRPIEKTISKAKGQPREPQVYTLPPSRDELTKNQVSLTCLVKGFYPSDIAVEWESNGQPENNYKTTPPVLDSDGSFFLYSKLTVDKSRWQQGNVFSCSVMHEALHNHYTQESLSLSP light: not shown
1300	110	3.7	2.1	10.1	840	IL6R-BP502/IL6R-L (antibody, human IgG1, kappa, Alterations in EU numbering, introduced into IL6R-B3) heavy: QVQLQESGPGLVKPSETLSLTCAVSGHSISHDHAWSWVRQPPGEGLEWIGFISYSGITNYNPSLQGRVTISRDNSKNTLYLQMNSLRAEDTAVYYCARSLARTTAMDYWGEGTLVTVSSASTKGPSVFPLAPSSKSTSGGTAALGCLVKDYFPEPVTVSWNSGALTSGVHTFPAVLQSSGLYSLSSVVTVPSSSLGTQTYICNVNHKPSNTKVDKKVEPKSCDKTHTCPPCPAPDLLGDDSVFLFPPKPKDTLMISRTPEVTCVVIDVAEEDGEVKFNWYVDGVEVHNAKTKPREEQDNSTYRVVSVLTVLHQDWLNGKEYKCKVSNKGLPRPIEKTISKAKGQPREPQVYTLPPSRDELTKNQVSLTCLVKGFYPSDIAVEWESNGQPENNYKTTPPVLDSDGSFFLYSKLTVDKSRWQQGNVFSCSVMHEALHNHYTQESLSLSP light: not shown
2600	120	4.1	7.7	9.2	756	IL6R-BP533/IL6R-L (antibody, human IgG1, kappa, Alterations in EU numbering, introduced into IL6R-B3) heavy: QVQLQESGPGLVKPSETLSLTCAVSGHSISHDHAWSWVRQPPGEGLEWIGFISYSGITNYNPSLQGRVTISRDNSKNTLYLQMNSLRAEDTAVYYCARSLARTTAMDYWGEGTLVTVSSASTKGPSVFPLAPSSKSTSGGTAALGCLVKDYFPEPVTVSWNSGALTSGVHTFPAVLQSSGLYSLSSVVTVPSSSLGTQTYICNVNHKPSNTKVDKKVEPKSCDKTHTCPPCPAPDLLGDDSVFLFPPKPKDTLMISRTPEVTCVVIDVGEEDGEVKFNWYVDGVEVHNAKTKPREEQDNSTYRVVSVLTVLHQDWLNGKEYKCKVSNKALPRPIEKTISKAKGQPREPQVYTLPPSRDELTKNQVSLTCLVKGFYPSDIAVEWESNGQPENNYKTTPLVLDSDGSFFLYSKLTVDKSRWQQGNVFSCSVMHEALHNHYTQESLSLSP light: not shown
860	57	1.7	1.2	19.4	1810	IL6R-BP503/IL6R-L (antibody, human IgG1, kappa, Alterations in EU numbering, introduced into IL6R-B3) heavy: QVQLQESGPGLVKPSETLSLTCAVSGHSISHDHAWSWVRQPPGEGLEWIGFISYSGITNYNPSLQGRVTISRDNSKNTLYLQMNSLRAEDTAVYYCARSLARTTAMDYWGEGTLVTVSSASTKGPSVFPLAPSSKSTSGGTAALGCLVKDYFPEPVTVSWNSGALTSGVHTFPAVLQSSGLYSLSSVVTVPSSSLGTQTYICNVNHKPSNTKVDKKVEPKSCDKTHTCPPCPAPDLLGDDSVFLFPPKPKDTLMISRTPEVTCVVIDVAEEDGEVKFNWYVDGVEVHNAKTKPREEQDNSTYRVVSVLTVLHQDWLNGKEYKCKVSNKGLPRPIEKTISKAKGQPREPQVYTLPPSRDELTKNQVSLTCLVKGFYPSDIAVEWESNGQPENNYKTTPMVLDSDGSFFLYSKLTVDKSRWQQGNVFSCSVMHEALHNHYTQESLSLSP light: not shown
4000	170	3.8	6	6.6	807	IL6R-BP510/IL6R-L (antibody, human IgG1, kappa, Alterations in EU numbering, introduced into IL6R-B3) heavy: QVQLQESGPGLVKPSETLSLTCAVSGHSISHDHAWSWVRQPPGEGLEWIGFISYSGITNYNPSLQGRVTISRDNSKNTLYLQMNSLRAEDTAVYYCARSLARTTAMDYWGEGTLVTVSSASTKGPSVFPLAPSSKSTSGGTAALGCLVKDYFPEPVTVSWNSGALTSGVHTFPAVLQSSGLYSLSSVVTVPSSSLGTQTYICNVNHKPSNTKVDKKVEPKSCDKTHTCPPCPAPELLGDDSVFLFPPKPKDTLMISRTPEVTCVVIDVAEEDGPVKFNWYVDGVEVHNAKTKPREEQYNSTYRVVSVLTVLHQDWLNGKEYKCKVSNKALPRPIEKTISKAKGQPREPQVYTLPPSRDELTKNQVSLTCLVKGFYPSDIAVEWESNGQPENNYKTTPPVLDSDGSFFLYSKLTVDKSRWQQGNVFSCSVMHEALHNHYTQESLSLSP light: not shown
1000	49	1.5	1.2	22.3	2120	IL6R-BP499/IL6R-L (antibody, human IgG1, kappa, Alterations in EU numbering, introduced into IL6R-B3) heavy: QVQLQESGPGLVKPSETLSLTCAVSGHSISHDHAWSWVRQPPGEGLEWIGFISYSGITNYNPSLQGRVTISRDNSKNTLYLQMNSLRAEDTAVYYCARSLARTTAMDYWGEGTLVTVSSASTKGPSVFPLAPSSKSTSGGTAALGCLVKDYFPEPVTVSWNSGALTSGVHTFPAVLQSSGLYSLSSVVTVPSSSLGTQTYICNVNHKPSNTKVDKKVEPKSCDKTHTCPPCPAPDLLGDDSVFLFPPKPKDTLMISRTPEVTCVVIDVAEEDGEVKFNWYVDGVEVHNAKTKPREEQDNSTYRVVSVLTVLHQDWLNGKEYKCKVSNKALPRPIEKTISKAKGQPREPQVYTLPPSRDELTKNQVSLTCLVKGFYPSDIAVEWESNGQPENNYKTTPLVLDSDGSFFLYSKLTVDKSRWQQGNVFSCSVMHEALHNHYTQESLSLSP light: not shown

Reference: US20210261648A1 (published 2021)
